The nanobody polyreactivity screen of Harvey et al. (2022)

Test: yeast display, Sf9 membrane polyspecificity reagent, FACS + sequencing; frameworks hold sequencing errors
Method in brief: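 Using colony PCR, genes from sorted yeast display clones were amplified, then sequenced on MiSeq at 2 × 250 and filtered by CDR length. The clones had been stained with 10% biotinylated, detergent-solubilized Sf9 membrane reagent for 1 hour at 4 °C and sorted by FACS into low and high (top ~1%) gates on anti-HA and streptavidin fluorescence. Polyreactivity labels come from the gate of origin.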

| Sequence | polyreactivity (PSR sort gate) |
| --- | --- |
| QVQLVESGGGLVQAGGSLRLSCAASGGIFTFNDMGWYRQAPGKERELVAAISRRGGSTYYADSVKGRFTISRDNAKNTVFLQMNSLKPEDTAVYYCAASSRRQRSEPYYYWGQGTQVTVSS | high polyreactivity |
| QVQLVESGGGLVQAGGSLRLSCAASGGIFTKNAMGWYRQAPGKERELVAGISRTGGNTYYADSVKGRFTISRDNAKYTVYLQMNSLIPEDTAVYYCNALYGGPHRLRYDYWGQGTQVTVSS | low polyreactivity |
| QVQLVESGGGLVQAGGSLRLSCAASGGIFVANAMGWYRQAPGKERELVAAISRSGGSTYYADSVKGRFTISRDNAKNTVYLQMKSLKPEDTAVYYCAAKSRRQFTVGLTSDYRGQGTQVTVSS | high polyreactivity |
| QVQLVESGGGLVQAGGSLRLSCAASGGIFVGNAMGWYRQAPGKERELVAAITYRGGRTYYADSVKGRFTISRDNAKNTVYLQMNSLKPEDTAVYYCNAYKQGGRSKYNYWGQGTQVTVSS | high polyreactivity |
| QVQLVESGGGLVQAGGSLRLSCAASGGIFVGYAMGWYRQAPGKERELVAAISSGGNTYYADSVKGRFTISRDNAKNTVYLQMNSLKPEDTAVYYCAAVRQYQGYRYDYWGQGTQVTVSS | high polyreactivity |
| QVQLVESGGGLVQAGGSLRLSCAASGGIFVGYAMGWYRQAPGKERELVASIDGSDGSTFYADSVKGRFTISRDNAKNTVYLQMNSLKPVDTAVYYCNARATLLSPANTIRGYDYWGQGTQVTVSS | low polyreactivity |
| QVQLVESGGGLVQAGGSLRLSCAASGGIFVLYAMGWYRQAPGKERELVAAIRYGGSSTYYADSVKGRFTISRDYAKNTVYLQMNSLKPEDTAVYYCAAEPYSWDTWVDYDYWGQGTQVTVSS | low polyreactivity |
| QVQLVESGGGLVQAGGSLRLSCAASGGIFVQNAMGWYRQAPGKERELVAAITNGGSTYYADSVKGRFTISRDNAKNTVYLQMNSLKPEDTAVYYCAVDEYFIQDMDYWGQGTQVTVSS | low polyreactivity |
| QVQLVESGGGLVQAGGSLRLSCAASGGIFVRYAMGWYRQAPGKERELVAAISYSGGSTYYADSVKGRFTISRDNAKNTVYLQLNSLKPEDTAVYYCAAYVTGRYDWGQVTQVTVSS | high polyreactivity |
| QVQLVESGGGLVQAGGSLRLSCAASGGIFVTYAMGWYRKAPGKERELLAAISANGGDTYYADSVKGRFTISRDNAKTSVYLQMNRLKPEDTAVYYCAADGFLPILHPVPWSYYYPFGYWGQGTHVTVSS | low polyreactivity |
| QVQLVESGGGLVQAGGSLRLSCAASGGIFVTYAMGWYRQAPGKERELVAAITSGGTTYYADSVKGRFTISRDNAKNTVYLQMNSLKPEDTAVYYCAADPTNSYLEYDYWGQGTQVTVSS | low polyreactivity |
| QVQLVESGGGLVQAGGSLRLSCAASGGIFWAYAMGWYRQAPGKERELVAAITTRGTSTYYADSVKGRFTISCDNAKNTVYLQMNSLKPEDTAVYYCAAALYGYYSTLTTYWGQGTQVTVSS | high polyreactivity |
| QVQLVESGGGLVQAGGSLRLSCAASGGIFWVYAMGWYRQAPGKERELVAAISNSDTSTSYADSVKGRFTISRDNAKNTVYLQMNSLKPEDTAVYYCNADSPSLSGDYWGQGTQVTVSS | low polyreactivity |
| QVQLVESGGGLVQAGGSLRLSCAASGGIFWYYTMGWYRQAPGKERELVATLSSGGRTYYADSVKGRFTMSRDNAKNTVYLQMNSLKPEDTAVYYCAAVGWYHDYYWGQGTQVTVSS | high polyreactivity |
| QVQLVESGGGLVQAGGSLRLSCAASGGIFWYYTRVWYRQAPGKERELVATISSGGRTYYADSVKGRFTISRDNAKNTVYLQMNSLKPEHTAVYYCAAVGWYHDYYWGQGTQVTVSS | high polyreactivity |
| QVQLVESGGGLVQAGGSLRLSCAASGGIFYFNAMGWYRQAPGKERELVASITWSGGNTYYADSVKGRFTISRDNAKNTVYLQMNSLKPEDTAVYYCAADTQEYRPTYDYWGQGTQVTVSS | low polyreactivity |
